Measured values taken from patent publication US20180148504A1 (EISAI R AND D MANAGEMENT, published 2018).

B1: Monoclonal antibody 30G6.G6.G4.E9 (antibody, mouse IgG1, V domains shown)
VH: GPGLVAPSQSLSITCTVSGFSLTSYGVHWVRQPPGKGLEWLGVIWAGGITNYNSALMSRLSISKDNSKSQVFLKMNSLQTDDTAMYYCARIYYDYDAWFAYWGQGTLVTVSA
VL: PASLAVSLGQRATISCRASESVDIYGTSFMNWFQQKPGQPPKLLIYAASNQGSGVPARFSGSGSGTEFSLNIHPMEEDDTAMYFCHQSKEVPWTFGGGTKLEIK
notes: Murine IgG1 kappa from hybridoma; also called ATCC PTA-123096
B2: Monoclonal antibody 19D4.B7 (antibody, mouse IgG2a, V domains shown)
VH: GARELVKPGASVKLSCTASGFNIKHPYMHWVKQRPDQGLEWIGRIDPANGNTKYDPKFQGKATITADTSSNTAYLQLSSLTSEDTAVYYCGREEVADYTMDYWGQGTSVTVSS
VL: PASLAVSLGQRATISCRASESVDTYGNNFIHWYQQKPGQPPKLLIYLASNLESGVPARFSGSGSRTDFTLTIDPVEADDAATYYCQQNNGDPWTFGGGTKLEIKR
notes: SULFO-TAG conjugated when used as detection antibody in the ECL assay; also called ATCC PTA-11884
B3: Monoclonal antibody 26A9.C4 (antibody, mouse IgG1, V domains shown)
VH: SGARELVKPGASVKLSCKTSGFTFSSSFISWLKQKPGQSLEWIAWIYGGNGGTSYNQNFTGKAQLTVDTSSSTAYMQFSSLTTEDSAVYYCASETYGNYWYFDVWGAGTTVTVSS
VL: QSPASLSASVGDTVTITCRASGNIHNYLAWYQQKQGKSPQLLVYNAKTLADGVPSRFSGSGSGTQYSLKINSLQPEDFGNYYCQHFWSTPYTFGGGTKLEIK
notes: Murine IgG1 kappa from hybridoma; also called ATCC PTA-123092
B4: Monoclonal antibody 2F11.F8 (antibody, mouse IgG1, V domains shown)
VH: ESGPGLVKPSQSLSLTCSVTGYSITSGYYWIWIRQFPGNKLEWMGYINYDGSNNYNPSLKNRISITRDTSKNQFFLKLNSVTTEDTATYYCARGNYYAMDYWGQGTSVTVSS
VL: not shown
notes: Murine IgG1 kappa from hybridoma; also called ATCC PTA-123098 (so in the source)
B5: Monoclonal antibody 24H8.D3 (antibody, mouse IgG1, V domains shown)
VH: QVQLKESGPGLVAPSQSLSITCTVSGFSLTSYGVSWVRQPPGKGLEWLGVIWGDGSTNYHSTLISRLSISKDNSKSQVFLKLNSLQTDDTATYYCAKPHPAATGAMDYWGQGTSVTVSS
VL: DIQMTQTTSSLSASLGDRVTISCRASQDISNHLNWYQQKPDGTIKLLIYYTSKLHSGVPSRFSGSGSGTDYSLTISNLEQEDIATYFCQQGNTLWTFGGGTKLEIK
notes: Biotin-conjugated when used as capture antibody in the ECL assay; also called ATCC PTA-123090

What was measured:
[1] = molecular target: T1, human folate receptor beta (FRβ), recombinant, C-terminal 6xHis (human, UniProt P14207 17-230, limits assumed); test: direct ELISA, plates coated with 1 µg/mL FR isoform, dilution series of culture supernatant
T1 construct: Transiently expressed in 293F cells and purified; coated on ELISA plates

[2] = molecular target: T2, human folate receptor gamma (FRγ), recombinant, C-terminal 6xHis (human, UniProt P41439 23-245, limits assumed); test: as above
T2 construct: Transiently expressed in 293F cells and purified; coated on ELISA plates

[3] = molecular target: T3, recombinant purified FRα (ECL assay calibrator) (human, UniProt P15328 25-234); test: ECL sandwich, FRα calibrator; capture 24H8.D3; binder = detection Ab
T3 construct: Calibrator of the ECL sandwich assays; also called FRα calibrator; FRα standard

[4] = molecular target: T3, recombinant purified FRα (ECL assay …); test: ECL sandwich, FRα calibrator; capture 6A2.G7; binder = detection Ab
[5] = molecular target: T3, recombinant purified FRα (ECL assay …); test: ECL sandwich on FRα, signal to background; capture 1C6.E12.G8; binder = detection Ab
[6] = molecular target: T3, recombinant purified FRα (ECL assay …); test: ECL sandwich, FRα calibrator; capture 1A8.G11.E7; binder = detection Ab
[7] = molecular target: T3, recombinant purified FRα (ECL assay …); test: ECL sandwich on FRα, signal to background; capture 30G6.G6.G4.E9; binder = detection Ab
[8] = molecular target: T3, recombinant purified FRα (ECL assay …); test: ECL sandwich, FRα calibrator; capture 5C12.H8; binder = detection Ab
[9] = molecular target: T3, recombinant purified FRα (ECL assay …); test: ECL sandwich, FRα calibrator; capture 19D2.G9; binder = detection Ab
[10] = molecular target: T3, recombinant purified FRα (ECL assay …); test: ECL sandwich, FRα calibrator; capture 30G6.G6.G4.E9; binder = detection Ab
[11] = molecular target: T3, recombinant purified FRα (ECL assay …); test: ECL sandwich, FRα calibrator; capture 26A9.C4; binder = detection Ab
[12] = molecular target: T3, recombinant purified FRα (ECL assay …); test: ECL sandwich on FRα, signal to background; capture 1D2.G8.G10; binder = detection Ab
[13] = molecular target: T3, recombinant purified FRα (ECL assay …); test: ECL sandwich, FRα calibrator; capture 24H8.F3; binder = detection Ab
[14] = molecular target: T3, recombinant purified FRα (ECL assay …); test: ECL sandwich on FRα, signal to background; capture 1A8.G11.E7; binder = detection Ab
[15] = molecular target: T3, recombinant purified FRα (ECL assay …); test: ECL sandwich on FRα, signal to background; capture 19D2.G9; binder = detection Ab
[16] = molecular target: T3, recombinant purified FRα (ECL assay …); test: ECL sandwich, FRα calibrator; capture 2F11.F8; binder = detection Ab
[17] = molecular target: T3, recombinant purified FRα (ECL assay …); test: ECL sandwich, FRα calibrator; capture 19D4.B7; binder = detection Ab
[18] = molecular target: T3, recombinant purified FRα (ECL assay …); test: ECL sandwich on FRα, signal to background; capture 24H8.F3; binder = detection Ab
[19] = molecular target: T3, recombinant purified FRα (ECL assay …); test: ECL sandwich on FRα, signal to background; capture 2F11.F8; binder = detection Ab
[20] = molecular target: T3, recombinant purified FRα (ECL assay …); test: ECL sandwich, FRα calibrator; capture 1D2.G8.G10; binder = detection Ab
[21] = molecular target: T3, recombinant purified FRα (ECL assay …); test: ECL sandwich on FRα, signal to background; capture 5C12.H8; binder = detection Ab
[22] = molecular target: T3, recombinant purified FRα (ECL assay …); test: ECL sandwich on FRα, signal to background; capture 28H12.G9; binder = detection Ab
[23] = molecular target: T3, recombinant purified FRα (ECL assay …); test: ECL sandwich, FRα calibrator; capture 28H12.G9; binder = detection Ab
[24] = molecular target: T3, recombinant purified FRα (ECL assay …); test: ECL sandwich on FRα, signal to background; capture 24H8.D3; binder = detection Ab
[25] = molecular target: T3, recombinant purified FRα (ECL assay …); test: ECL sandwich, FRα calibrator; capture 1C6.E12.G8; binder = detection Ab
[26] = molecular target: T3, recombinant purified FRα (ECL assay …); test: ECL sandwich on FRα, signal to background; capture 19D4.B7; binder = detection Ab
[27] = molecular target: T3, recombinant purified FRα (ECL assay …); test: ECL sandwich on FRα, signal to background; capture 26A9.C4; binder = detection Ab
[28] = molecular target: T3, recombinant purified FRα (ECL assay …); test: ECL sandwich on FRα, signal to background; capture 6A2.G7; binder = detection Ab

T3 sequence (P15328 25-234 limits assumed): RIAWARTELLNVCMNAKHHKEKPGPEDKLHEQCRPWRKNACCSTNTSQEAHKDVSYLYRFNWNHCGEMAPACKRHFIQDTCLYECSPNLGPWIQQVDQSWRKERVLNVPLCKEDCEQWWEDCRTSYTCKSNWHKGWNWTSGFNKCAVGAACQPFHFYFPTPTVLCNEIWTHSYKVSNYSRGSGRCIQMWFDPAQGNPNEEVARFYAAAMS
T2 sequence (P41439 other isoform, or with tags, fused parts or gaps limits assumed): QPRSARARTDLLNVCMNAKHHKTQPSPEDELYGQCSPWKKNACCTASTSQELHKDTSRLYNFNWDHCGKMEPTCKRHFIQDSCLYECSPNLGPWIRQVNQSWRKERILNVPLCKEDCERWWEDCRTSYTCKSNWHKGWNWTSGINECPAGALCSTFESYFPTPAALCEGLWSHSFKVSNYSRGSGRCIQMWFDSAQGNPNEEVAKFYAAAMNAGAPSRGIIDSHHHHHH
T1 sequence (P14207 other isoform, or with tags, fused parts or gaps limits assumed): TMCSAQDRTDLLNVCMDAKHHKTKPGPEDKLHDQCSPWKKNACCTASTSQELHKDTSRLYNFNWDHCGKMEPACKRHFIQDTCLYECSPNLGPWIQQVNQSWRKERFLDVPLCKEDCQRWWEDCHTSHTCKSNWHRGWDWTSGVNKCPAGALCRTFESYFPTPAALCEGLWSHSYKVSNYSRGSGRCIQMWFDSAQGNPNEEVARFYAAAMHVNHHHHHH

Binder	binding result [1]	binding result [2]	Specific signal at 500 pg/mL [3]	Specific signal at 500 pg/mL [4]	Average of S/B [5]	Specific signal at 500 pg/mL [6]	Average of S/B [7]	Specific signal at 500 pg/mL [8]	Specific signal at 500 pg/mL [9]	Specific signal at 500 pg/mL [10]	Specific signal at 500 pg/mL [11]	Average of S/B [12]	Specific signal at 500 pg/mL [13]	Average of S/B [14]	Average of S/B [15]	Specific signal at 500 pg/mL [16]	Specific signal at 500 pg/mL [17]	Average of S/B [18]	Average of S/B [19]	Specific signal at 500 pg/mL [20]	other results
B1	no binding	no binding	–	–	–	–	–	–	–	–	–	–	–	–	–	–	–	–	–	–	–
B2	–	–	49100	4960	28	58700	1	320	65500	81	2630	29	19100	405	560	1260	87	207	17	1970	Average of S/B [21]: 5; Average of S/B [22]: 17; Specific signal at 500 pg/mL [23]: 1220; Average of S/B [24]: 361; Specific signal at 500 pg/mL [25]: 2020; Average of S/B [26]: 1; Average of S/B [27]: 34; Average of S/B [28]: 82
B3	no binding	no binding	59	361	1	62	114	68	79	6710	79	1	56	1	1	61	16500	1	1	64	Average of S/B [21]: 1; Average of S/B [22]: 1; Specific signal at 500 pg/mL [23]: 62; Average of S/B [24]: 1; Specific signal at 500 pg/mL [25]: 58; Average of S/B [26]: 250; Average of S/B [27]: 1; Average of S/B [28]: 6
B4	no binding	no binding	59	1180	1	65	81	53	71	6790	69	1	54	1	1	179	26500	1	1	60	Average of S/B [21]: 1; Average of S/B [22]: 1; Specific signal at 500 pg/mL [23]: 73; Average of S/B [24]: 1; Specific signal at 500 pg/mL [25]: 56; Average of S/B [26]: 338; Average of S/B [27]: 1; Average of S/B [28]: 23
B5	no binding	no binding	69	1930	1	71	273	69	110	20300	81	1	88	1	2	64	40500	1	1	52	Average of S/B [21]: 1; Average of S/B [22]: 1; Specific signal at 500 pg/mL [23]: 97; Average of S/B [24]: 1; Specific signal at 500 pg/mL [25]: 59; Average of S/B [26]: 332; Average of S/B [27]: 1; Average of S/B [28]: 38
